Here are results for one molecule from patent US20190085075A1 (published 2019).

Assay [1] has as its target T1, soluble human LAG-3 fusion protein (extracellular domain of human LAG-3 fused to murine IgG2a) (human; murine, UniProt P18627 23-450).
T1 construct: also called human LAG-3-murine IgG2a fusion protein; not shown: murine IgG2a
T1 sequence: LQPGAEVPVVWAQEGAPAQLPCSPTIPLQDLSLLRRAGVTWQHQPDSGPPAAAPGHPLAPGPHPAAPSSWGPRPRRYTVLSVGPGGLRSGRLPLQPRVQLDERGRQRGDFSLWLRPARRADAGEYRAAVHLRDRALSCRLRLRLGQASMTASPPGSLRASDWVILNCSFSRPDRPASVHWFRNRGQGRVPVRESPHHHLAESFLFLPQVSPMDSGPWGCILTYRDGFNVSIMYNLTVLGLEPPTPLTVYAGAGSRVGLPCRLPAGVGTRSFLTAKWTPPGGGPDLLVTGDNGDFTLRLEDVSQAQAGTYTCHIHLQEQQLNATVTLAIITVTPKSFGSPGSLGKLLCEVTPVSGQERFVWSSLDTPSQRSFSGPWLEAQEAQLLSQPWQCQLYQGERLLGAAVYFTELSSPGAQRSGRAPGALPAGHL
Description: Biacore; human LAG-3 ECD-murine IgG2a captured on Fab2 goat-anti-mouse Fc, antibody injected. (Surface plasmon resonance follows binding to a sensor surface in real time, without labels.)

The target of assay [2] is T2, soluble cynomolgus monkey LAG-3 fusion protein (extracellular domain of cynomolgus monkey LAG-3 fused to … (cynomolgus monkey; murine).
T2 construct: extracellular domain; also called cynomolgus LAG-3-murine IgG2a fusion protein
Description: Biacore; cynomolgus LAG-3 ECD-murine IgG2a captured on Fab2 goat-anti-mouse Fc, antibody injected.

In assay [3] the target is T3, His-tagged soluble human LAG-3 (shLAG-3-His) (human, UniProt P18627 23-450).
T3 construct: also called soluble human LAG-3-His fusion protein; extracellular domain of human LAG-3 fused to a His tag; not shown: His tag
T3 sequence: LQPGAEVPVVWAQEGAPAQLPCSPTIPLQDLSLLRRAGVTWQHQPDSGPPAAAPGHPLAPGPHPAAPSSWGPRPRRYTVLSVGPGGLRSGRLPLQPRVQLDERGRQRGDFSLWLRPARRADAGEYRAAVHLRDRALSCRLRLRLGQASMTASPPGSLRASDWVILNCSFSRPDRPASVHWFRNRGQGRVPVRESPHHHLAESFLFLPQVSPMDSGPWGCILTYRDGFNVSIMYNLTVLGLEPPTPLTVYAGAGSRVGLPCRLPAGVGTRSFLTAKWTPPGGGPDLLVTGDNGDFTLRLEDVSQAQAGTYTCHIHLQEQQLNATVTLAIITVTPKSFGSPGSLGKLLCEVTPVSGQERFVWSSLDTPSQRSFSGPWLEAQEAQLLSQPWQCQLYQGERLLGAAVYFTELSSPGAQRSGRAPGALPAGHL
The assay can be described thus: Biacore; antibody captured (capture surface not marked for this row), shLAG-3-His injected.

B1: LAG-3 mAb A (25F7, BMS-986016, Medarex/BMS) (antibody, V domains shown)
VH: QVQLQQWGAGLLKPSETLSLTCAVYGGSFSDYYWNWIRQPPGKGLEWIGEINHNGNTNSNPSLKSRVTLSLDTSKNQFSLKLRSVTAADTAVYYCAFGYSDYEYNWFDPWGQGTLVTVSS
VL: EIVLTQSPATLSLSPGERATLSCRASQSISSYLAWYQQKPGQAPRLLIYDASNRATGIPARFSGSGSGTDFTLTISSLEPEDFAVYYCQQRSNWPLTFGQGTNLEIK
notes: also called LAG-2 mAb A
For orientation: Kd means a measure of binding affinity in units of concentration. With B1, the dissociation constant (Kd) in assay [1] is 0.16 nM; in assay [2], 458 nM; in assay [3] it was 0.6 nM.
